What was measured:
[1] = molecular target: T1, biotinylated recombinant human TNFRSF25-His tagged (Acro #TN5-H52H3) (human, UniProt Q93038 25-199, biotinylated); test: MSD plate binding; TNFRSF25 precoated, unpurified scFv supernatant in 2-fold serial dilutions, detection of the C-terminal myc tag
T1 construct: treated as the same protein; also called recombinant biotin-conjugated human TNFRSF25 protein; DR3
T1 sequence (looked up): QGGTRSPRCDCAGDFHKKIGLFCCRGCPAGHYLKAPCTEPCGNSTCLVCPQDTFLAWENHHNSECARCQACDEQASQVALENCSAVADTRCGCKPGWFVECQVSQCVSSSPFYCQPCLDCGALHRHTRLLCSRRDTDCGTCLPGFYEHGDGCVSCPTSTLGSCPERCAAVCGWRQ
Source text: (FIG. 2A) TNFRSF25 was precoated on MSD assay plates followed by adding scFv supernatant at 2-fold serial-dilutions followed by detection of the myc tag present on the C-terminus of the scFv's. (FIG. 2B) scFv supernatant were serially diluted and added to an MSD-plate pre-coated with TNFRSF25.

[2] = molecular target: T2, biotinylated recombinant human FcRn-His tagged protein (Acro #FCM-H82W7) (human, UniProt P55899 24-297; P61769 21-119, biotinylated); test: BLI/Octet; biotinylated human FcRn-His on streptavidin biosensor
T2 construct: also called hFcRn; neonatal Fc receptor
Method: (§1) Figure 5D: FIG. 5D. FcRn binding kinetics by anti-TNFRSF25 antibodies. BLI assay was performed using the Octet Red 96e instrument. Streptavidin biosensors were loaded with biotinylated recombinant human(h) FcRn-His tagged protein (Acro #FCM-H82W7) as the ligand. During the association phase, biosensors were incubated with anti-DR3 candidate antibodies at various concentrations for 600 seconds, followed by a 600-second dissociation phase.
(§2) To detect binding of certain whole antibodies to the neonatal Fc receptor (FcRn) at neutral and acidic pH conditions, streptavidin biosensors were loaded with biotinylated recombinant human FcRn-His tagged protein (Acro #FCM-H82W7) as the ligand. During the association phase, biosensors were incubated with anti-TNFRSF25 antibodies at various concentrations for 600 seconds, followed by a 600 second dissociation phase.

[3] = molecular target: T2, biotinylated recombinant human FcRn-His …; test: BLI/Octet; biotinylated human FcRn-His on streptavidin biosensor; pH 6.0
Method: as §1, §2

[4] = molecular target: T2, biotinylated recombinant human FcRn-His …; test: BLI/Octet; biotinylated human FcRn-His on streptavidin biosensor; pH 7.4
Method: as §1, §2

[5] = molecular target: T1, biotinylated recombinant human …; test: MSD competition (lower panel); antibody on TNFRSF25-coated plate, wash, then TL1A-rabbit Fc at 0.4 ug/ml, sulfo-tag anti-rabbit detection; raw MSD signal
Method: (§3) Figure 6: FIG. 6. […] Human TNFRSF25 was precoated on MSD assay plates followed by incubating with various concentrations of anti-TNFRSF25 antibodies.

[6] = molecular target: FcγR1 (CD64), BLI reagent (UniProt P12314 16-288, limits assumed); test: BLI; antibody as analyte at 300 nM on FcγR1
[7] = molecular target: T1, biotinylated recombinant human …; test: BLI/Octet; biotinylated TNFRSF25 on streptavidin sensor, mAb in solution; 1:1 Langmuir model
Source text: Provided herein are monoclonal and biparatopic antibodies that specifically target human TNFRSF25. The monoclonal antibodies were produced in an engineered CHOK1 cell-line by transfecting the cells with vectors genetically encoding the Heavy and Light chain antibody sequences followed by a single-step affinity-capture chromatography using FcXL resins. The final monoclonal antibody preparation was buffer exchanged into PBS, pH 7.4. Production of biparatopic antibodies followed a two-step process. In the first step of the process, the so called Knob-half (or Hole-half) antibody was produced by transfecting an engineered CHOK1 cell-line with vectors genetically encoding the Knob (or the Hole) Heavy chain and the corresponding Light chain sequences. The CHOK1-cell-harvest from the Knob-half antibody and Hole half-antibody was then purified by Protein A column-based chromatography. In the second step of the process, the two half-antibodies were reassembled into the desired biparatopic format by the use of a mild reduction step followed by quenching the reaction with buffer exchange into PBS, pH 7.4. To detect binding of the antibodies to human TNFRSF25, recombinant biotin-conjugated human TNFRSF25 protein was immobilized onto a streptavidin-coated MSD (Meso Scale Discovery) plate and allowed to bind the anti-TNFRSF25 mAbs in solution. Following a washing step, the bound antibodies were detected using a sulfo-tagged anti-human Fc antibody. The results of these MSD assays are shown in arbitrary units (au) on the y-axis of FIG. 1. To determine the binding affinity of the antibodies to recombinant human TNFRSF25 protein, recombinant biotin-conjugated human TNFRSF25 protein was immobilized onto a streptavidin-coated BLI sensor and allowed to bind the anti-TNFRSF25 mAbs in solution phase. The binding affinity (K_D) was calculated using the on-rates (Ka) and off-rates (Kd) of mAb binding to the target using a 1:1 Langmuir binding model in the ForteBio data analysis software.

[8] = molecular target: T3, DcR3 (decoy receptor, recombinant) (UniProt O95407 30-300); test: MSD plate binding; human DcR3 protein immobilized on the plate, sulfo-tag anti-human Fc
T3 construct: also called decoy Receptor, DcR3
T3 sequence (looked up): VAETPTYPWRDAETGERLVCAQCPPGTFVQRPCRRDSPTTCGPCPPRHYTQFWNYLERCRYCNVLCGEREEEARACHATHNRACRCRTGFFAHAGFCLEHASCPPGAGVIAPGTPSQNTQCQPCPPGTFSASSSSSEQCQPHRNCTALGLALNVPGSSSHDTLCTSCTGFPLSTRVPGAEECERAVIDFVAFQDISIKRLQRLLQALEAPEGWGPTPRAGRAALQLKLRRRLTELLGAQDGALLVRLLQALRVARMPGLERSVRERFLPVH

[9] = molecular target: T4, TNFR1 (recombinant) (UniProt P19438 30-211, limits assumed); test: MSD plate binding; human TNFR1 protein immobilized on the plate, sulfo-tag anti-human Fc
T4 sequence (looked up): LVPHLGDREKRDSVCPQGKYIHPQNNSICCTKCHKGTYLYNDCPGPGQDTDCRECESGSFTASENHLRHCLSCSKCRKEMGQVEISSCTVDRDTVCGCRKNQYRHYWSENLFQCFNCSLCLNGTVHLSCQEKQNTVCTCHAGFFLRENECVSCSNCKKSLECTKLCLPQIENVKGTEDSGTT

[10] = molecular target: T5, TNFR2 (recombinant) (UniProt P20333 23-257, limits assumed); test: MSD plate binding; human TNFR2 protein immobilized on the plate, sulfo-tag anti-human Fc
T5 sequence (looked up): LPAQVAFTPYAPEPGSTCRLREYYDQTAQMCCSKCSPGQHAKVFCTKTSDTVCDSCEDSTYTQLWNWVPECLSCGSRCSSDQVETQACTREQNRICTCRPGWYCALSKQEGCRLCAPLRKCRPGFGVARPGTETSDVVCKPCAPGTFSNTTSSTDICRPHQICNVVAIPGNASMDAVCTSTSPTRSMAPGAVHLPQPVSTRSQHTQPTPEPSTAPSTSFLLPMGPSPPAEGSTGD

[11] = molecular target: T1, biotinylated recombinant human …; test: MSD competition; TNFRSF25 on plate, antibody titrated, then TL1A-rabbit Fc 0.4 µg/ml as competitor
Method: as §3

[12] = molecular target: T1, biotinylated recombinant human …; test: BLI/Octet Red 96e; biotinylated TNFRSF25-His on streptavidin biosensor; 600 s association, 600 s dissociation
Method: Figure 4: FIG. 4. TNFRSF25 binding affinity of anti-TNFRSF25 antibodies. BLI assay was performed using the Octet Red 96e instrument. Streptavidin biosensors were loaded with biotinylated recombinant human TNFRSF25-His tagged (Acro #TN5-H52H3) as the ligand. During the association phase, biosensors were incubated with anti-TNFRSF25 antibodies at various concentrations for 600 seconds, followed by a 600-second dissociation phase.
as §2, with “human TNFRSF25,” for “the neonatal Fc receptor (FcRn) at neutral and acidic pH conditions,”, “TNFRSF25-His” for “FcRn-His”, “tagged” for “tagged protein”, “#TN5-H52H3)” for “#FCM-H82W7)”

[13] = molecular target: T2, biotinylated recombinant human FcRn-His …; test: BLI/Octet; biotinylated human FcRn-His on streptavidin biosensor; pH 7.4; pH 7.4
Method: as §1, §2

T2 sequence (P55899 24-297 limits assumed, chain 1 of 2): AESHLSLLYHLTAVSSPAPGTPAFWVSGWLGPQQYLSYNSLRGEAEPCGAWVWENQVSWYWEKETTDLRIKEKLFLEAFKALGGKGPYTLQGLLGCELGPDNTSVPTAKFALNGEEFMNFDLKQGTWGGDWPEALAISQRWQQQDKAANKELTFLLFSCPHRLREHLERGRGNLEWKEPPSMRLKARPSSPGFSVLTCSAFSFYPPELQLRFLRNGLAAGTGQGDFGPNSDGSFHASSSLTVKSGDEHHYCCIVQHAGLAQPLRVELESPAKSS
T2 sequence (P61769 21-119 limits assumed, chain 2 of 2): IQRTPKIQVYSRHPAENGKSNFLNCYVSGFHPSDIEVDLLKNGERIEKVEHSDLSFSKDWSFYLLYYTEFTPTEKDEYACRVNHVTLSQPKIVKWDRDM
Sequence of FcγR1 (CD64), BLI reagent (P12314 16-288 limits assumed): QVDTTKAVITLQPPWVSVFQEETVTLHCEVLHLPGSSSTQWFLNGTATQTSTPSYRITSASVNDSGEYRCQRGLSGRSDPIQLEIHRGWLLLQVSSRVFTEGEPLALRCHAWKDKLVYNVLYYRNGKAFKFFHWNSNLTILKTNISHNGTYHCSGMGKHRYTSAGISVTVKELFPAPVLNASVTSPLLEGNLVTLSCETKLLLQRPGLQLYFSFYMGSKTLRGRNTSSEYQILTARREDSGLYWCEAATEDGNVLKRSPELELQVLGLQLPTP

B1: NH24-162 (scFv, not shown: small tags and cut ends)
scFv: EVQLVESGGGSVQPGGSLRLSCAASGFTFSSYGMSWVRQAPGKGLEWISYISSSGGHTYYADSVKGQFTISRDNAKNSLYLQMNSLRAEDTAVYYCARGSGSFDYWGQGTLVTVSSGGRGSGGGGSGSGGSDIVMTQSPSSLSASVGDRVTITCQASQDISNYLSWYQQKPGKAPKLLISDASNLETGVPSRFSGSGSGTDFTFTISSLQPEDIATYYCQQYDNLPITFGQGTRLEIKR
notes: one of the four variants of group m25; used as unpurified E. coli supernatant; the sheet prints NH24-162; also called NH24-162 scFv
B1: binds [1].

B2: SL-061_YTE (antibody, human IgG1, kappa)
heavy: QVQLQQSGPGLVKPSQTLSLTCAISGDSVSGYSAAWNWIRQSPSRGLEWLGRTYYRSKWYNDYAVSVKSRITINPDTSKNQFSLQLNSVTPEDTAVYYCARDYYGSESYYNRGYYYYGMDVWGQGTTVTVSSASTKGPSVFPLAPSSKSTSGGTAALGCLVKDYFPEPVTVSWNSGALTSGVHTFPAVLQSSGLYSLSSVVTVPSSSLGTQTYICNVNHKPSNTKVDKKVEPKSCDKTHTCPPCPAPEAAGAPSVFLFPPKPKDTLYITREPEVTCVVVDVSHEDPEVKFNWYVDGVEVHNAKTKPREEQYNSTYRVVSVLTVLHQDWLNGKEYKCKVSNKALPAPIEKTISKAKGQPREPQVYTLPPSREEMTKNQVSLTCLVKGFYPSDIAVEWESNGQPENNYKTTPPVLDSDGSFFLYSKLTVDKSRWQQGNVFSCSVMHEALHNHYTQKSLSLSPGK
light: AIQLTQSPSSLSASVGDRVTITCRASPGISSALAWYQQKPGKAPKLLMYDESSQESGVPSRFSGSGSGTDFTLTISSLQPEDFATYYCQQFNDYPLTFGGGTKVEIKRTVAAPSVFIFPPSDEQLKSGTASVVCLLNNFYPREAKVQWKVDNALQSGNSQESVTEQDSKDSTYSLSSTLTLSKADYEKHKVYACEVTHQGLSSPVTKSFNRGEC
notes: SL-061 with YTE half-life extension changes in the Fc
In the case of B2, the “fold improvement in binding affinity at pH 6.0 compared to pH 7.4” value [2] is reported as ~10 fold, the Kd [3] is reported as 0.966 nM and the koff [3] is reported as 0.000193 s⁻¹. The kon [3] was 200000 M⁻¹ s⁻¹, the Kd [4] was 8.08 nM and the koff [4] was 0.00179 s⁻¹. The kon [4] was 222000 M⁻¹ s⁻¹ and the “IC50 (read off the curve)” value [5] was ~0.07 nM.

B3: SL-033 (antibody, human IgG1, kappa, L234A L235A)
heavy: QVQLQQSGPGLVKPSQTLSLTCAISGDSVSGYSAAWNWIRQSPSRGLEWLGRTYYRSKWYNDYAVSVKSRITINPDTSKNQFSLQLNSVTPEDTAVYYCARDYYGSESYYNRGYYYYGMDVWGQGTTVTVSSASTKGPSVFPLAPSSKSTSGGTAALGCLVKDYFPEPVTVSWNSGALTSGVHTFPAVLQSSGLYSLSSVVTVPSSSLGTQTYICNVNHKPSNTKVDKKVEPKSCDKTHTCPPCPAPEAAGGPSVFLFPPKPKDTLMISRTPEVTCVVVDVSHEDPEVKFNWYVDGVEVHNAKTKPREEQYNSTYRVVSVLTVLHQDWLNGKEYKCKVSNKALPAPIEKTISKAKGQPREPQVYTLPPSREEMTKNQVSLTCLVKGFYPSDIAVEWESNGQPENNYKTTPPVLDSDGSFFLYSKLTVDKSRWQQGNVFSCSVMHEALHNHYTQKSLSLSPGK
light: AIQLTQSPSSLSASVGDRVTITCRASPGISSALAWYQQKPGKAPKLLMYDESSQESGVPSRFSGSGSGTDFTLTISSLQPEDFATYYCQQFNDYPLTFGGGTKVEIKRTVAAPSVFIFPPSDEQLKSGTASVVCLLNNFYPREAKVQWKVDNALQSGNSQESVTEQDSKDSTYSLSSTLTLSKADYEKHKVYACEVTHQGLSSPVTKSFNRGEC
notes: Anti-TNFRSF25 IgG1 with Fc-silencing L234A/L235A; also called clone 033; SL-033 (L234A/L235A)
With B3 the binding result [6] was “binds”, the Kd [7] was < 1 nM and the binding result [8] was “no binding (tested: about 200 nM (log nM about 2.3))”. For the same binder, the binding result [9] was “no binding (tested: about 200 nM (log nM about 2.3))”, the binding result [10] was “no binding (tested: about 200 nM (log nM about 2.3))” and the IC50 [11] was 0.07 nM. The “Response (RU)” value [12] was 2.19 RU, the koff [12] was < 1e-07 s⁻¹ and the kon [12] was 243000 M⁻¹ s⁻¹.

B4: SL-062 (antibody, human IgG1, kappa)
heavy: not shown
light: AIQLTQSPSSLSASVGDRVTITCRASPGISSALAWYQQKPGKAPKLLMYDESSQESGVPSRFSGSGSGTDFTLTISSLQPEDFATYYCQQFNDYPLTFGGGTKVEIKRTVAAPSVFIFPPSDEQLKSGTASVVCLLNNFYPREAKVQWKVDNALQSGNSQESVTEQDSKDSTYSLSSTLTLSKADYEKHKVYACEVTHQGLSSPVTKSFNRGEC
notes: Same variable regions as SL-033 with wild-type IgG1 Fc; also called clone 062
B4 was tested, and the binding result [6] was “binds”, the Kd [3] was 3.93 nM and the koff [3] was 0.000715 s⁻¹. The kon [3] was 182000 M⁻¹ s⁻¹, the Kd [4] was 6.54 nM and the kon [4] was 190000 M⁻¹ s⁻¹. It also gave a koff [13] of 0.00124 s⁻¹.

From US12319742 (SHATTUCK LABS, dated 2025)
